Here are results for 5 sequences from the supplement of paper PMC5998384.

Series [1] has as its system HeLa Kyoto. Put plainly: solubility in G1/S (NP-40 vs SDS abundance) (log2 ratio); higher = more soluble. Particulars: cell cycle stage: G1/S.
Series [2] relates to HeLa Kyoto. Nature of the series: melting temperature (median over replicates), in situ; higher = more thermally stable.
In series [3] the test system is HeLa Kyoto. Nature of the series: thermal stability score vs G1/S (z-score of summed log2 fold changes over temperatures); higher = more thermally stable than in G1/S.
Series [4] relates to HeLa Kyoto. Nature of the series: solubility change mitosis vs G1/S (difference of NP-40 vs SDS log2 ratios) (log2 ratio difference); higher = more soluble in mitosis.
The mark [5] stands for this setting: cell cycle stage: early G1 (4.5 h after nocodazole release).
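For melting temperature (median over replicates), in situ in this document: HeLa Kyoto cells synchronized by double thymidine or nocodazole block, proteins quantified by TMT10plex mass spectrometry, three independent biological replicates.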
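For solubility change mitosis vs G1/S (difference of NP-40 vs SDS log2 ratios) in this document: synchronized HeLa Kyoto cells (double thymidine block for G1/S, nocodazole release for mitosis), protein amounts in NP-40 versus SDS lysates quantified by mass spectrometry, three biological replicates.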
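For solubility in G1/S (NP-40 vs SDS abundance) in this document: HeLa Kyoto cells arrested at G1/S by double thymidine block, proteins quantified by TMT10plex mass spectrometry in mild NP-40 versus SDS extracts, three biological replicates.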
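For thermal stability score vs G1/S (z-score of summed log2 fold changes over temperatures) in this document: synchronized HeLa Kyoto cells, proteins quantified by TMT10plex mass spectrometry, three biological replicates, mitosis taken 0.5 h after nocodazole release, G1/S directly after double thymidine block.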

“MAEPVGKRGRWSGGSGAGRGGRGGWGGRGRRPRAQRSPSRGTLDVVSVDLVTDSDEEILEVATARGAADEVEVEPPEPPGPVASRDNSNSDSEGEDRRPAGPPREPVRRRRRLVLDPGEAPLVPVYSGKVKSSLRLIPDDLSLLKLYPPGDEEEAELADSSGLYHEGSPSPGSPWKTKLRTKDKEEKKKTEFLDLDNSPLSPPSPRTKSRTHTRALKKLSEVNKRLQDLRSCLSPKPPQGQEQQGQEDEVVLVEGPTLPETPRLFPLKIRCRADLVRLPLRMSEPLQSVVDHMATHLGVSPSRILLLFGETELSPTATPRTLKLGVADIIDCVVLTSSPEATETSQQLQLRVQGKEKHQTLEVSLSRDSPLKTLMSHYEEAMGLSGRKLSFFFDGTKLSGRELPADLGMESGDLIEVWG [NFATC2IP]”: the “solubility in G1/S (log2)” value in the series on HeLa Kyoto [1] was 0.318. Further, the melting temperature was 48.7 °C with HeLa Kyoto [2] (cell cycle stage: G1/S) and 51.5 °C with HeLa Kyoto [2] (cell cycle stage: mitosis). The thermal stability score in the series on HeLa Kyoto [3] (setting [5]) came out at 2.45; with HeLa Kyoto [3] (cell cycle stage: mitosis), 4.3. Besides, the “solubility change mitosis (log2)” value in the series on HeLa Kyoto [4] is -0.0384.
As to “MAERKPNGGSGGASTSSSGTNLLFSSSATEFSFNVPFIPVTQASASPASLLLPGEDSTDVGEEDSFLGQTSIHTSAPQTFSYFSQVSSSSDPFGNIGQSPLTTAATSVGQSGFPKPLTALPFTTGSQDVSNAFSPSISKAQPGAPPSSLMGINSYLPSQPSSLPPSYFGNQPQGIPQPGYNPYRHTPGSSRANPYIAPPQLQQCQTPGPPAHPPPSGPPVQMYQMPPGSLPPVPSSVQSPAQQQVPARPGAPSVQVPSPFLLQNQYEPVQPHWFYCKEVEYKQLWMPFSVFDSLNLEEIYNSVQPDPESVVLGTDGGRYDVYLYDRIRKAAYWEEEPAEVRRCTWFYKGDTDSRFIPYTEEFSEKLEAEYKKAVTTNQWHRRLEFPSGETIVMHNPKVIVQFQPSSVPDEWGTTQDGQTRPRVVKRGIDDNLDEIPDGEMPQVDHLVFVVHGIGPVCDLRFRSIIECVDDFRVVSLKLLRTHFKKSLDDGKVSRVEFLPVHWHSSLGGDATGVDRNIKKITLPSIGRFRHFTNETLLDILFYNSPTYCQTIVEKVGMEINHLHALFMSRNPDFKGGVSVAGHSLGSLILFDILSNQKDLNLSKCPGPLAVANGVVKQLHFQEKQMPEEPKLTLDESYDLVVENKEVLTLQETLEALSLSEYFSTFEKEKIDMESLLMCTVDDLKEMGIPLGPRKKIANFVEHKAAKLKKAASEKKAVAATSTKGQEQSAQKTKDMASLPSESNEPKRKLPVGACVSSVCVNYESFEVGAGQVSVAYNSLDFEPEIFFALGSPIAMFLTIRGVDRIDENYSLPTCKGFFNIYHPLDPVAYRLEPMIVPDLDLKAVLIPHHKGRKRLHLELKESLSRMGSDLKQGFISSLKSAWQTLNEFARAHTSSTQLQEELEKVANQIKEEEEKQVVEAEKVVESPDFSKDEDYLGKVGMLNGGRRIDYVLQEKPIESFNEYLFALQSHLCYWESEDTALLLLKEIYRTMNISPEQPQH [SEC23IP]”, the “solubility in G1/S (log2)” value with HeLa Kyoto [1] was found to be 0.171. Further, the melting temperature in the series with HeLa Kyoto [2] (cell cycle stage: G1/S) amounted to 50.5 °C; in the series with HeLa Kyoto [2] (cell cycle stage: mitosis), 50.3 °C. Also, the thermal stability score is -1.73 in the series on HeLa Kyoto [3] (setting [5]) and -1.12 with HeLa Kyoto [3] (cell cycle stage: mitosis). Besides, the “solubility change mitosis (log2)” value in the series with HeLa Kyoto [4] is -0.197.
As for “MAETLSGLGDSGAAGAAALSSASSETGTRRLSDLRVIDLRAELRKRNVDSSGNKSVLMERLKKAIEDEGGNPDEIEITSEGNKKTSKRSSKGRKPEEEGVEDNGLEENSGDGQEDVETSLENLQDIDIMDISVLDEAEIDNGSVADCVEDDDADNLQESLSDSRELVEGEMKELPEQLQEHAIEDKETINNLDTSSSDFTILQEIEEPSLEPENEKILDILGETCKSEPVKEESSELEQPFAQDTSSVGPDRKLAEEEDLFDSAHPEEGDLDLASESTAHAQSSKADSLLAVVKREPAEQPGDGERTDCEPVGLEPAVEQSSAASELAEASSEELAEAPTEAPSPEARDSKEDGRKFDFDACNEVPPAPKESSTSEGADQKMSSPEDDSDTKRLSKEEKGRSSCGRNFWVSGLSSTTRATDLKNLFSKYGKVVGAKVVTNARSPGARCYGFVTMSTAEEATKCINHLHKTELHGKMISVEKAKNEPVGKKTSDKRDSDGKKEKSSNSDRSTNLKRDDKCDRKDDAKKGDDGSGEKSKDQDDQKPGPSERSRATKSGSRGTERTVVMDKSKGVPVISVKTSGSKERASKSQDRKSASREKRSVVSFDKVKEPRKSRDSESHSRVRERSEREQRMQAQWEREERERLEIARERLAFQRQRLERERMERERLERERMHVEHERRREQERIHREREELRRQQELRYEQERRPAVRRPYDLDRRDDAYWPEAKRAALDERYHSDFNRQDRFHDFDHRDRGRYPDHSVDRREGSRSMMGEREGQHYPERHGGPERHGRDSRDGWGGYGSDKRMSEGRGLPPPPRRDWGDHGRREDDRSWQGTADGGMMDRDHKRWQGGERSMSGHSGPGHMMNRGGMSGRGSFAPGGASRGHPIPHGGMQGGFGGQSRGSRPSDARFTRRY [SAFB]”, the “solubility in G1/S (log2)” value in the series on HeLa Kyoto [1] was -0.896. Moreover, the melting temperature was 50 °C with HeLa Kyoto [2] (cell cycle stage: G1/S) and 50.5 °C in the series with HeLa Kyoto [2] (cell cycle stage: mitosis). The thermal stability score in the series with HeLa Kyoto [3] (setting [5]) worked out at 0.453; in the series on HeLa Kyoto [3] (cell cycle stage: mitosis), 0.986. The “solubility change mitosis (log2)” value in the series with HeLa Kyoto [4] is 0.541.
“MAETYDFLFKFLVIGSAGTGKSCLLHQFIENKFKQDSNHTIGVEFGSRVVNVGGKTVKLQIWDTAGQERFRSVTRSYYRGAAGALLVYDITSRETYNSLAAWLTDARTLASPNIVVILCGNKKDLDPEREVTFLEASRFAQENELMFLETSALTGENVEEAFLKCARTILNKIDSGELDPERMGSGIQYGDASLRQLRQPRSAQAVAPQPCGC [RAB4B]”: the “solubility in G1/S (log2)” value with HeLa Kyoto [1] was found to be 0.181. Besides, the melting temperature in the series on HeLa Kyoto [2] (cell cycle stage: G1/S) is 56.8 °C; in the series with HeLa Kyoto [2] (cell cycle stage: mitosis), 57.9 °C. Also, the thermal stability score in the series on HeLa Kyoto [3] (setting [5]) was -1.18; with HeLa Kyoto [3] (cell cycle stage: mitosis), -2.73. Also, the “solubility change mitosis (log2)” value in the series on HeLa Kyoto [4] is -0.29.
With “MAFANLRKVLISDSLDPCCRKILQDGGLQVVEKQNLSKEELIAELQDCEGLIVRSATKVTADVINAAEKLQVVGRAGTGVDNVDLEAATRKGILVMNTPNGNSLSAAELTCGMIMCLARQIPQATASMKDGKWERKKFMGTELNGKTLGILGLGRIGREVATRMQSFGMKTIGYDPIISPEVSASFGVQQLPLEEIWPLCDFITVHTPLLPSTTGLLNDNTFAQCKKGVRVVNCARGGIVDEGALLRALQSGQCAGAALDVFTEEPPRDRALVDHENVISCPHLGASTKEAQSRCGEEIAVQFVDMVKGKSLTGVVNAQALTSAFSPHTKPWIGLAEALGTLMRAWAGSPKGTIQVITQGTSLKNAGNCLSPAVIVGLLKEASKQADVNLVNAKLLVKEAGLNVTTSHSPAAPGEQGFGECLLAVALAGAPYQAVGLVQGTTPVLQGLNGAVFRPEVPLRRDLPLLLFRTQTSDPAMLPTMIGLLAEAGVRLLSYQTSLVSDGETWHVMGISSLLPSLEAWKQHVTEAFQFHF [PHGDH]”, the “solubility in G1/S (log2)” value in the series with HeLa Kyoto [1] turned out to be 0.233. Further, the melting temperature is 55.9 °C in the series with HeLa Kyoto [2] (cell cycle stage: G1/S) and 55.4 °C in the series on HeLa Kyoto [2] (cell cycle stage: mitosis). Further, the values for the thermal stability score in the series on HeLa Kyoto [3] (setting [5]) and with HeLa Kyoto [3] (cell cycle stage: mitosis) were -2.03 and -1.42, respectively. Further, the “solubility change mitosis (log2)” value in the series on HeLa Kyoto [4] stood at 0.0444.
